Reference: paper PMC8774819

B1: WOX4 promoter probe c (dsDNA)
DNA 1: GTAACGAGAAAGGCATGCATAGCATTTGCTAGTTTTAACATATAGCA
DNA 2: TGCTATATGTTAAAACTAGCAAATGCTATGCATGCCTTTCTCGTTAC
B2: WOX4 promoter probe a (dsDNA)
DNA 1: CCATCTGATCACAGCTTGACACACGAATCAGGTTATCCATCGTGTGA
DNA 2: TCACACGATGGATAACCTGATTCGTGTGTCAAGCTGTGATCAGATGG

Biological target: BES1-MBP (Arabidopsis thaliana, UniProt Q9LN63 1-335)
Assay: EMSA

Sequence of BES1-MBP (Q9LN63 whole entry): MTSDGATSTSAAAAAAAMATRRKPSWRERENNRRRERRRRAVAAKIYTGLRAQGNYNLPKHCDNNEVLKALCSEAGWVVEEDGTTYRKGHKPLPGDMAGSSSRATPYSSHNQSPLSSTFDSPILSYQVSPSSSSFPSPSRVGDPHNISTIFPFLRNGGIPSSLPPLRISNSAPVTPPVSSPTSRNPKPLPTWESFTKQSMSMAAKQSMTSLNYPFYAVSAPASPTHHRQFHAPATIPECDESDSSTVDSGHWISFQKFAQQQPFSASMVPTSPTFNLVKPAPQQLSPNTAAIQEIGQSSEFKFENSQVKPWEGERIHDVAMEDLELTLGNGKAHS

Binder | binding result
B1 | binds
B2 | binds
